How the values were obtained:
Plasma stability studies = assay type: in vitro ADME; conditions: rat plasma, 100 μM conjugate, 37° C.
Method: A 20 mM stock of conjugate was prepared in 100% DMSO. The stocks were subsequently diluted in 100 mM Tris, pH 7.5 to yield an intermediate dilution of 500 μM and then diluted 1:5 directly into rat plasma to yield a final concentration of 100 μM of conjugate. Samples were mixed by inversion and incubated at 37° C. for up to 24 h. 50 μL samples were aliquoted into siliconized microfuge tubes at time 0, 4, and 24 h and immediately frozen at −80° C.
(§1) Samples were thawed and extracted as follows: 8 μL of 25% phosphoric acid followed by 117 μL of 100% Acetonitrile/0.1% TFA was added to each sample, mixed and centrifuged at 13000×G for 10 minutes. The supernatant was pipetted into 0.2 mL HPLC vials and placed on a Perkin Elmer Flexar HPLC autosampler. The following table summarizes HPLC conditions:
Data was analyzed by calculating the percentage reduction of compound (area of retention time peak of incubated conjugate/area of retention time peak of conjugate at time 0)×100.

HCT116 = assay: cells; assay type: cell-based, human; conditions: 96 h
Method: Cells were plated in 96 well black walled-clear bottom plates (Griener), DLD-1 WT cells at 2500 cells per well, FaDu, and HeLa cells at 5000 cells per well, and HCT116 at 3000 cells per well, in growth media containing 10% FBS. Cells were allowed to adhere at room temperature for 60 minutes before returning to a 37 C, 5% CO2 incubator. After 24 hours, media was removed and replaced with fresh growth media containing various drug concentrations. Each drug concentration was added in triplicate. Non-drug treated controls contained growth media only. Cells were returned to the incubator. Ninety-six hours after addition of drug, cells were fixed with 4% paraformaldehyde for 20 minutes and stained with Hoechst at 1 ug/mL. The plates were imaged on a Cytation 5 auto imager (BioTek) and cells were counted using CellProfiler (http://cellprofiler.org). The percent cell growth delay was calculated and data plotted using GraphPad Prism

[1] = Glutathione cleavage study; assay type: in vitro ADME; conditions: Tris buffer with 10 mM glutathione, Glutathione Challenge (10 mM), 100 μM conjugate, Tris pH 7.5, 37° C.
Method: A 20 mM stock of conjugate was prepared in 100% DMSO. The stocks were subsequently diluted in 100 mM Tris, pH 7.5, to yield an intermediate dilution of 500 μM followed by an additional dilution of 1:5 in 100 mM Tris, pH 7.5 to give a final concentration of 100 μM of conjugate. 100 mM glutathione was prepared immediately prior to use in H2O and diluted 1:10 in challenge samples for a final glutathione challenge concentration of 10 mM. Samples were mixed by inversion and incubated at 37° C. for up to 24 hrs. […]
as §1, with “100% acetonitrile/0.1%” for “100% Acetonitrile/0.1%”, “TFA were” for “TFA was”
Data was analyzed by calculating the percentage reduction of compound (area of retention time peak of […] conjugate/area of retention time peak of conjugate at time 0)×100.

| SMILES | remaining at 4 h, 100 µM (Plasma stability studies) | remaining at 24 h, 100 µM (Plasma stability studies) | IC50 (HCT116) | remaining at 4 h, 100 µM [1] | remaining at 24 h, 100 µM [1] |
| --- | --- | --- | --- | --- | --- |
| CC[C@@]1(O)C(=O)OCc2c1cc1n(c2=O)Cc2c-1nc1cc(F)c(C)c3c1c2[C@@H](NC(=O)O[C@H]1COCC[C@@H]1SSC[C@H](NC(=O)[C@H](Cc1c[nH]c2ccccc12)NC(=O)[C@H](CC(C)C)NC(=O)[C@H](CC(C)C)NC(=O)[C@H](CC(=O)O)NC(=O)[C@H](CC(C)C)NC(=O)[C@H](CC(C)C)NC(=O)[C@H](CC(C)C)NC(=O)[C@@H](NC(=O)[C@H](CC(=O)O)NC(=O)[C@@H](NC(=O)[C@@H]1CCCN1C(=O)[C@H](Cc1ccccc1)NC(=O)[C@H](CC(C)C)NC(=O)[C@H](CC(C)C)NC(=O)[C@H](CC(=O)O)NC(=O)[C@H](CC(C)C)NC(=O)[C@H](Cc1ccc(O)cc1)NC(=O)[C@H](C)NC(=O)[C@H](CCCNC(=N)N)NC(=O)[C@H](Cc1c[nH]c2ccccc12)NC(=O)[C@@H]1CCCN1C(=O)[C@H](CC(N)=O)NC(=O)[C@H](CCC(N)=O)NC(=O)[C@H](CC(=O)O)NC(=O)[C@H](CC(=O)O)NC(=O)[C@H](C)N)[C@@H](C)O)[C@@H](C)O)C(=O)NCC(=O)O)CC3 [Compound 21] | 101% | 98.2% | 3.1 nM | 9.5% | 12.6% |
| CC[C@@]1(O)C(=O)OCc2c1cc1n(c2=O)Cc2c-1nc1cc(F)c(C)c3c1c2[C@@H](NC(=O)O[C@H]1CCC[C@@H]1SSC[C@H](NC(=O)[C@H](Cc1c[nH]c2ccccc12)NC(=O)[C@H](CC(C)C)NC(=O)[C@H](CC(C)C)NC(=O)[C@H](CC(=O)O)NC(=O)[C@H](CC(C)C)NC(=O)[C@H](CC(C)C)NC(=O)[C@H](CC(C)C)NC(=O)[C@@H](NC(=O)[C@H](CC(=O)O)NC(=O)[C@@H](NC(=O)[C@@H]1CCCN1C(=O)[C@H](Cc1ccccc1)NC(=O)[C@H](CC(C)C)NC(=O)[C@H](CC(C)C)NC(=O)[C@H](CC(=O)O)NC(=O)[C@H](CC(C)C)NC(=O)[C@H](Cc1ccc(O)cc1)NC(=O)[C@H](C)NC(=O)[C@H](CCCNC(=N)N)NC(=O)[C@H](Cc1c[nH]c2ccccc12)NC(=O)[C@@H]1CCCN1C(=O)[C@H](CC(N)=O)NC(=O)[C@H](CCC(N)=O)NC(=O)[C@H](CC(=O)O)NC(=O)[C@H](CC(=O)O)NC(=O)[C@H](C)N)[C@@H](C)O)[C@@H](C)O)C(=O)NCC(=O)O)CC3 [Compound 15] | 105% | 103% | 1.7 nM | 19.4% | 8.3% |
| CC[C@@]1(O)C(=O)OCc2c1cc1n(c2=O)Cc2c-1nc1cc(F)c(C)c3c1c2[C@@H](NC(=O)O[C@@H]1CCCCC[C@H]1SSC[C@H](NC(=O)[C@H](Cc1c[nH]c2ccccc12)NC(=O)[C@H](CC(C)C)NC(=O)[C@H](CC(C)C)NC(=O)[C@H](CC(=O)O)NC(=O)[C@H](CC(C)C)NC(=O)[C@H](CC(C)C)NC(=O)[C@H](CC(C)C)NC(=O)[C@@H](NC(=O)[C@H](CC(=O)O)NC(=O)[C@@H](NC(=O)[C@@H]1CCCN1C(=O)[C@H](Cc1ccccc1)NC(=O)[C@H](CC(C)C)NC(=O)[C@H](CC(C)C)NC(=O)[C@H](CC(=O)O)NC(=O)[C@H](CC(C)C)NC(=O)[C@H](Cc1ccc(O)cc1)NC(=O)[C@H](C)NC(=O)[C@H](CCCNC(=N)N)NC(=O)[C@H](Cc1c[nH]c2ccccc12)NC(=O)[C@@H]1CCCN1C(=O)[C@H](CC(N)=O)NC(=O)[C@H](CCC(N)=O)NC(=O)[C@H](CC(=O)O)NC(=O)[C@H](CC(=O)O)NC(=O)[C@H](C)N)[C@@H](C)O)[C@@H](C)O)C(=O)NCC(=O)O)CC3 [Compound 22] | 106% | 105% | 5.9 nM | 65.8% | 12.3% |
| CC[C@@]1(O)C(=O)OCc2c1cc1n(c2=O)Cc2c-1nc1cc(F)c(C)c3c1c2[C@@H](NC(=O)O[C@@H]1CCc2ccccc2[C@H]1SSC[C@H](NC(=O)[C@H](Cc1c[nH]c2ccccc12)NC(=O)[C@H](CC(C)C)NC(=O)[C@H](CC(C)C)NC(=O)[C@H](CC(=O)O)NC(=O)[C@H](CC(C)C)NC(=O)[C@H](CC(C)C)NC(=O)[C@H](CC(C)C)NC(=O)[C@@H](NC(=O)[C@H](CC(=O)O)NC(=O)[C@@H](NC(=O)[C@@H]1CCCN1C(=O)[C@H](Cc1ccccc1)NC(=O)[C@H](CC(C)C)NC(=O)[C@H](CC(C)C)NC(=O)[C@H](CC(=O)O)NC(=O)[C@H](CC(C)C)NC(=O)[C@H](Cc1ccc(O)cc1)NC(=O)[C@H](C)NC(=O)[C@H](CCCNC(=N)N)NC(=O)[C@H](Cc1c[nH]c2ccccc12)NC(=O)[C@@H]1CCCN1C(=O)[C@H](CC(N)=O)NC(=O)[C@H](CCC(N)=O)NC(=O)[C@H](CC(=O)O)NC(=O)[C@H](CC(=O)O)NC(=O)[C@H](C)N)[C@@H](C)O)[C@@H](C)O)C(=O)NCC(=O)O)CC3 [Compound 25] | 103% | 104% | 2.9 nM | 42% | 4.1% |
| CC[C@@]1(O)C(=O)OCc2c1cc1n(c2=O)Cc2c-1nc1cc(F)c(C)c3c1c2[C@@H](NC(=O)O[C@H]1CC[C@H](SSC[C@H](NC(=O)[C@H](Cc2c[nH]c4ccccc24)NC(=O)[C@H](CC(C)C)NC(=O)[C@H](CC(C)C)NC(=O)[C@H](CC(=O)O)NC(=O)[C@H](CC(C)C)NC(=O)[C@H](CC(C)C)NC(=O)[C@H](CC(C)C)NC(=O)[C@@H](NC(=O)[C@H](CC(=O)O)NC(=O)[C@@H](NC(=O)[C@@H]2CCCN2C(=O)[C@H](Cc2ccccc2)NC(=O)[C@H](CC(C)C)NC(=O)[C@H](CC(C)C)NC(=O)[C@H](CC(=O)O)NC(=O)[C@H](CC(C)C)NC(=O)[C@H](Cc2ccc(O)cc2)NC(=O)[C@H](C)NC(=O)[C@H](CCCNC(=N)N)NC(=O)[C@H](Cc2c[nH]c4ccccc24)NC(=O)[C@@H]2CCCN2C(=O)[C@H](CC(N)=O)NC(=O)[C@H](CCC(N)=O)NC(=O)[C@H](CC(=O)O)NC(=O)[C@H](CC(=O)O)NC(=O)[C@H](C)N)[C@@H](C)O)[C@@H](C)O)C(=O)NCC(=O)O)CC1)CC3 [Compound 26] | 105% | 112% | 87 nM | 75.8% | 32.1% |
| CC[C@@]1(O)C(=O)OCc2c1cc1n(c2=O)Cc2c-1nc1cc(F)c(C)c3c1c2[C@@H](NC(=O)OC[C@@H](SSC[C@H](NC(=O)[C@H](Cc1c[nH]c2ccccc12)NC(=O)[C@H](CC(C)C)NC(=O)[C@H](CC(C)C)NC(=O)[C@H](CC(=O)O)NC(=O)[C@H](CC(C)C)NC(=O)[C@H](CC(C)C)NC(=O)[C@H](CC(C)C)NC(=O)[C@@H](NC(=O)[C@H](CC(=O)O)NC(=O)[C@@H](NC(=O)[C@@H]1CCCN1C(=O)[C@H](Cc1ccccc1)NC(=O)[C@H](CC(C)C)NC(=O)[C@H](CC(C)C)NC(=O)[C@H](CC(=O)O)NC(=O)[C@H](CC(C)C)NC(=O)[C@H](Cc1ccc(O)cc1)NC(=O)[C@H](C)NC(=O)[C@H](CCCNC(=N)N)NC(=O)[C@H](Cc1c[nH]c2ccccc12)NC(=O)[C@@H]1CCCN1C(=O)[C@H](CC(N)=O)NC(=O)[C@H](CCC(N)=O)NC(=O)[C@H](CC(=O)O)NC(=O)[C@H](CC(=O)O)NC(=O)[C@H](C)N)[C@@H](C)O)[C@@H](C)O)C(=O)NCC(=O)O)C(C)C)CC3 [Compound 27] | 117% | 109% | 0.7 nM | 18% | 0% |
